Source: patent US20060252716A1, “Method for reversing the immunosuppressive effects of the melanoma inhibitory activity "mia"” (priority 2000, published 2006)

Columns and labels:
MIA = test: Inhibition of MIA expression by antisense sequences; assay type: cell-based, human
[1] = tested on: LAK cytotoxicity against malignant glioma cell lines (HTZ-17, -243, -374, -375); test: CARE-LASS calcein-release assay, effector cells pretreated with MIA; assay type: cell-based
Excerpt: To study the effects of MIA upon cytotoxic T-lymphocytes (CTL) and Lymphokine Activated Killer cells (LAK cells) a CARE-LASS assay has been employed (Lichtenfels, R., Biddison, W. E., Schulz, H., Vogt, A. B. and R. Martin. CARE-LASS (calcein-release assay), an improved fluorescence based test system to measure cytotoxic lymphocyte activity J. Immunol. Meth., 172: 227-239, 1994). Briefly, glioma cells were harvested, washed in 5% FCS/PBS solution and resuspended at 10 Mio cells/ml in 5% FCS/FBS. Calcein-AM was added to a final concentration of 25 μM (Molecular Probes, USA). The cells were labeled for 30 min at 37° C. then washed twice in 5%/FCS/PBS, adjusted to 1 Mio cells/ml and loaded into 96-well U-shaped microtiter plates at the final concentration of 0.1 Mio/100 μL/1 well (Nunc, Denmark). To measure cytotoxic activity of effector cells pretreated with MIA (f.c. 500 ng/ml), wells were loaded with 100 μL of CTL and LAK cells to produce the desired E:T ratios of […]. […] After incubating the plate for 4 h at 37° C. the supernatants (50 μL) were transferred into new wells and measured using an automated fluorescence scanner (Titertek Fluoroskan II, Germany). The percent cytotoxicity was determined from the following equation: [formula]

cells = settings: cited from earlier work
[2] = tested on: Peripheral Blood Mononuclear Cells (PBMCs); settings: addition of MIA; cited from earlier work
malignant melanoma cell = settings: cited from earlier work
[3] = tested on: human MIA-secreting melanoma as well as breast cancer cell lines; test: Tumor invasion and metastasis in scid-mice and nude mice; assay type: in vivo; settings: transfecting vector expressing the antisense sequence
Excerpt: Inhibition of endogenous MIA synthesis by a transfecting vector expressing the antisense sequence (SEQ. ID No 9): […]

Molecule: MIA-0202-N: MIA antisense sequence ATG GTG AGG AAT CG
- inhibiting MIA expression (MIA): Less active or inactive

Molecule: MIA-2841-W: MIA antisense sequence GTC AGG AAT CGG GAG
- inhibiting MIA expression (MIA): Active

Molecule: MIA-1277-N: MIA antisense sequence GAA TGG TCA GGA ATG G
- inhibiting MIA expression (MIA): Less active or inactive

Molecule: MIA-1278-W: MIA antisense sequence CTT GGA GAA GAG ATA C
- inhibiting MIA expression (MIA): Active

Molecule: MIA-2842-W: MIA antisense sequence TGC CTC CCC AGA AG (antisense TGCCTCCCCAGAAG; all phosphorothioate, sugars by position and methylation of C not given here; listed as Homo sapiens)
- inhibiting MIA expression (MIA): Active

B1: MIA: polypeptide Melanoma Inhibitory Activity; 131-amino acid precursor processed into a mature 107-amino acid protein (protein, UniProt Q16674 25-131, looked up)
Melanoma-derived growth …: GPMPKLADRKLCADQECSHPISMAVALQDYMAPDCRFLTIHRGQVVYVFSKLKGRGRLFWGGSVQGDYYGDLAARLGYFPSSIVREDQTLKPGKVDVKTDKWDFYCQ
- inhibition of autologous and allogenic LAK cytotoxicity compared to controls ([1]; MIA f.c. 500 ng/ml, E:T ratios 1:10 and 1:100, 4 h): up to 40%
- Allogenic anti-glioma LAK immune response ([1]; exogenous addition of MIA): strongly inhibited
- inhibits cell proliferation (cell cycle effect) (cells): prolonging of the S-Phase and arrest of the cells in the G2 compartment
- IL-2-stimulated PBMC proliferation [2]: only slightly inhibited
- tumor cell growth inhibition (malignant melanoma cell): potent tumor cell growth inhibitor

B2: SEQ. ID No 9: long MIA antisense sequence, or parts of it, expressed from a transfecting vector (nucleic acid, listed as Homo sapiens)
antisense: GGCAGGGCCAGCGGTAGGCTGAGCTCACTGGCAGTAGAAATCCCATTTGTCTGTCTTCACATCGACTTTGCCAGGTTTCAGGGTCTGGTCCTCTCGGACAATGCTACTGGGGAAATAGCCCAGGCGAGCAGCCAGATCTCCATAGTAATCTCCCTGAACGCTGCCTCCCCAGAAGAGCCGCCCACGGCCCTTCAGCTTGGAGAAGACATACACCACTTGGCCCCGGTGAATGGTCAGGAATCGGCAGTCGGGGGCCATGTAGTCCTGAAGGGCCACAGCCATGGAGATAGGGTGGCTGCACTCCTGGTCCGCACACAGCTTCCGGTCAGCCAGCTTGGGCATAGGACCACCCCTGACACCAGGTCCGGAGAAGGCAGACAGCAAGATGATGACACCAAGGCACACCAGGGACCGGGCCATCGTGGACTGTGAGCAAGAGAGTGAGCAAGGGGGTGCTGG
modifications: expressed from transfecting vector
- tumor invasion and metastasis [3]: strongly reduced
